According to the nanobody polyreactivity screen of Harvey et al. (2022):

Test: yeast display, Sf9 membrane polyspecificity reagent, FACS + sequencing; frameworks hold sequencing errors
Method in brief: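 Nanobodies came from a synthetic yeast display library in Saccharomyces cerevisiae BJ5465, induced with galactose for 36–48 hours and stained for 1 hour at 4 °C with 10% biotinylated, detergent-solubilized Sf9 membrane reagent. Cells were enriched on streptavidin microbeads and then FACS-sorted, with low and high (top ~1%) gates set on anti-HA fluorescence for expression and streptavidin fluorescence for reagent binding. Each polyreactivity label reflects the gate a clone came from. Genes were amplified by colony PCR, sequenced by MiSeq 2 × 250 and filtered by CDR length.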

QVQHVESGGGLVQAGGSLRLRCAASGFTFRRYALGWYRQAPGKERELVAAISGSGGSTYYADSVKGRFTISRDKAKNTVYLQMNSLKPEDTAVYYCNALLRAIAEYDYWGQGTQVTVSS
polyreactivity (PSR sort gate): high polyreactivity

QVQHVESGGGLVQAGGSLRLRCAASGSIFYINAMGWYRQAPGQERELVAAITSDGSTYYADSVKGRFTISGDNAKNSVYLQINSLKPEDTAVYYCAADLTSDQYVYYWYWFYSWGQGTQVTVSS
polyreactivity (PSR sort gate): low polyreactivity

QVQHVESGGGLVQAGGSLRLSCAASGFIFAWYTMGWDRQAPGKERELVAAISRSGVRTYYADSVKGRFTISRDNAKNTVYLQMNSLKPEDTAVYYCAVDWYPTMDYWGQGTQVTLSS
polyreactivity (PSR sort gate): high polyreactivity

QVQHVESGGGLVQAGGSLRLSCAASGFIFNRNAMGWYRQAPGKERELVAAISTRGSTYYADSVKGRFTISRDNAKNTDYLQMNSLKPEDTAVYYCAKAVYVDQGTYYYCGQGTQVTVSS
polyreactivity (PSR sort gate): low polyreactivity

QVQHVESGGGLVQAGGSLRLSCAASGFIFTYYGMGWYRQAPGKERELVAAITWSGASTYYADSVKGRFTISRDNAKNTVYLQMNSLKPEDSAVYYCNAVWDSGIVQSDETVYKYDYWGQGTQVTVSS
polyreactivity (PSR sort gate): low polyreactivity

QVQHVESGGGLVQAGGSLRLSCAASGFIFVSYTMGWYRHAPGKEWELVATITVSDGSTYYADSVKGRFTISRDNAKNTVYLQMNSLKPEDTAVYYCNKDKVVVRYDYWGQGTQVTVSS
polyreactivity (PSR sort gate): low polyreactivity

QVQHVESGGGLVQAGGSLRLSCAASGFTFGYYAMGWYRQAPGKESELVAAIRSSGGSTYYADSVKGRFTISRDYAKNTDYLQMNSLKPEDSAVYYCAVLYGYLSSSRYGYDSWGKGTQVTVSS
polyreactivity (PSR sort gate): high polyreactivity

QVQHVESGGGLVQAGGSLRLSCAASGFTFKRNAMGWYRPAPGKERELVAAITWSGGSTYYADSVKGRFTISRDNAKNTVYLQMNSLKPEDTEVYYCAALYRSRYYSGDYWGQGTQVTVSS
polyreactivity (PSR sort gate): high polyreactivity

QVQHVESGGGLVQAGGSLRLSCAASGFTFRWYTMGWYRQAPGKERELVASIRYGGGSTYYADSVKGRFTISRDNAKNTVYLQMNSLKPEDTAVYYCAAESAWTSPYDYWGQGTQVTVSS
polyreactivity (PSR sort gate): high polyreactivity

QVQHVESGGGLVQAGGSLRLSCAASGFTFRYNAMGWYRQAPGKKGSWVAAISRTGGSTYYADSVKGRFTISRDNAKNTVYLQMNSLKPEDTAVYYCARAPEGTGGKYGYWGQGTQVTVSS
polyreactivity (PSR sort gate): high polyreactivity

QVQHVESGGGLVQAGGSLRLSCAASGFTIVYYGMGRYRQAPGKERELVAAITYSGGRTYYADSVKGRFTISRDNAKNTVYLQMNSLKPEDTAVYYCNAYTQQYRSYGYWGQGTQVTVSS
polyreactivity (PSR sort gate): high polyreactivity

QVQHVESGGGLVQAGGSLRLSCAASGGIFYYYAMGWYRPAPGKERELVATISNGGSTYYADSVKGRFTISRDNAKNTVYLQMNSLNPEDTAVYYCAARDGRQPRGYRLVTYYAPMYYWGQGTQVTVSS
polyreactivity (PSR sort gate): high polyreactivity

QVQHVESGGGLVQAGGSLRLSCAASGGTFGDYAMGWSRQAPGKEREFVASITRSVSNTYYADSVKGRFTISRDNAKNTVYLQMNSLKPEDTAVYYCNADRWYPWRYIMDYWGQGTQVTVSS
polyreactivity (PSR sort gate): low polyreactivity

QVQHVESGGGLVQAGGSLRLSCAASGGTFRPYARGWSIQAPGKERELVAAISYTGSTYYADSVKGRFTISRDNAKYTVYLQMNSLKPEDTAVYYCAKDFWYPPRFDYWGQGTQVTVSS
polyreactivity (PSR sort gate): low polyreactivity

QVQHVESGGGLVQAGGSLRLSCAASGGTFYTYAMGWYRQAPGKERELVAAITSRGSSTYYADSVKGRFTISRDNANNTVYLQMNSLKPEDTAVYYCARRSQRGMYSMYYWGQGTQVTVSS
polyreactivity (PSR sort gate): low polyreactivity

QVQHVESGGGLVQAGGSLRLSCAASGIFVDNAMGWYRQARGKERELVAAITSSTDSTYYADSVKGRFPISRDNAKNTVYLQINSLNPEDSAVYYCAVARPGGFYFLVHYGYGYWGQGTQVTVSS
polyreactivity (PSR sort gate): low polyreactivity

QVQHVESGGGLVQAGGSLRLSCAASGIIFDGNVMGWDRQAPGKEREFVASISISGGSTSYADSVKGRFTISRDNAKNTVYLQMNSLKPEDTAVYYCNTDVGYGRVCRWRYHGDYWGQGTQVTVSS
polyreactivity (PSR sort gate): low polyreactivity

QVQHVESGGGLVQAGGSLRLSCAASGIIFIVYAMGWYRQAPGKERELVAAISNGGSTYYADSVKGRFTISRDNAKNTVYLQMNSLKPEDTAVYYCAAGGALASQWSKKLYDYWGQGTQVTVSS
polyreactivity (PSR sort gate): low polyreactivity

QVQHVESGGGLVQAGGSLRLSCAASGIIITGNAMGWYRQAPGKERELVAAISTSGGRTYYADSVKGRFTISRDNAKNTVYLQMNSLKPEDTAVYYCAADDLSGTELYYWGQGTQVTVSS
polyreactivity (PSR sort gate): high polyreactivity

QVQHVESGGGLVQAGGSLRLSCAASGLIFARNAMVWYRQAPGKERELVAAISSSGNTYADSVKGRFTISRDNAKNTVYLQMNSLKPEDTAVFYCAADYVRWGQRKRSRYYYWGHGTQVTVSS
polyreactivity (PSR sort gate): high polyreactivity

QVQHVESGGGLVQAGGSLRLSCAASGLIFSWTAMGWYRQAPGKERELVASISYSGGRTYYADSVKGRFTISRDNAKNTVYLQMNSLKPEDTAVYYCAADTNATTDPEMDYWGQGTQVTVSS
polyreactivity (PSR sort gate): low polyreactivity

QVQHVESGGGLVQAGGSLRLSCAASGLTFANYVMGWYRQAPGKERELVASISISGGSTYYADSVKGRFTISRDNAKNTVYLQMNSLKPEDTAVYYCAASFVSSYQYDYWGQGTQVTVSS
polyreactivity (PSR sort gate): high polyreactivity

QVQHVESGGGLVQAGGSLRLSCAASGLTFLSNAMGWYRPARGNEWELVAAINSGARKFYADSVKGRFTISRDNAKNTVYLQMNCLKPEDTAVYYCNADYGKPSYYDDGDYWGEGTQVTVSS
polyreactivity (PSR sort gate): low polyreactivity

QVQHVESGGGLVQAGGSLRLSCAASGLTLKRNAMGWYRQAPGKERELVAAISGRGGSTYYADSVKGRFTISRDNAKNTVYLQMNSLKPEDTAVYYCAATVQYSPIYDYWGQGTQVTVSS
polyreactivity (PSR sort gate): high polyreactivity

QVQHVESGGGLVQAGGSLRLSCAASGNIFDRNAMGWDRQARGKERELVAAISRSGGRTYYADSVKGRFTISRDHAKNTVYLQMNSLKPEDTAVYYCNRRYRKYSSAKYDYWGQGTQVTVSS
polyreactivity (PSR sort gate): high polyreactivity

QVQHVESGGGLVQAGGSLRLSCAASGNIFTRNPMGWYRQAPGKERELVAAINYSGGSTYYADSVKGRFTISRDNAKNTVYLQMNSLKPEDTAVYYCAKDYAPSTDSYDYWGQGTQVTVSS
polyreactivity (PSR sort gate): low polyreactivity

QVQHVESGGGLVQAGGSLRLSCAASGRIFGKNDMGWYRQAPGNERELVAAITTSGGSTYYADSVKGRFTISRYNAKNTVYLQMNSLKPEDTAVYYCNAAFQNKGYIRKYKYDYWGQGTQVTVSS
polyreactivity (PSR sort gate): low polyreactivity

QVQHVESGGGLVQAGGSLRLSCAASGRIFGTYAMGWYRQAPGKERELVAAISWSGGRTYYADSVKGRFTISRDNAKNTVYLQMNSLKPEHTAVYYCAARGVPRDGRHHYRYDYWGQGSQVTVSS
polyreactivity (PSR sort gate): high polyreactivity

QVQHVESGGGLVQAGGSLRLSCAASGRIFGYYAMGWYRQAHGKQSELVAAITSGGRTNYADSVKGRFTISRDNAKNTVYLQMNSLKPEDTAVYYCAKEYPRYSSPYDYWGQGTQVTVSS
polyreactivity (PSR sort gate): low polyreactivity

QVQHVESGGGLVQAGGSLRLSCAASGRIFHRNAMGWYRKAPGKERELVAAISYRSGSTYYADSVKGRFTISRDNEKYTVYLQMNSLKPEDTAVYYCAKVRHIRFHYYYGYQSYYYWGQGTQVTLSS
polyreactivity (PSR sort gate): high polyreactivity

QVQHVESGGGLVQAGGSLRLSCAASGRIFVPYGMGWYRQAPGKERELVAAISLRGGTTYYADSVKGRFTISRDNAKNTVYLQMNSLKPEDTAVYYCAARGYVSVWRPYHWFVAGDYWGQGTQVTVSS
polyreactivity (PSR sort gate): high polyreactivity

QVQHVESGGGLVQAGGSLRLSCAASGRIFVYYALGWYRQAPGKERELVASISYSGASTYYADSVKGRFTISRDNAKNTVYLQMNSLKPEDTAVYYCNTDGDDFFHVIYDYWGQGTQVTVSS
polyreactivity (PSR sort gate): low polyreactivity

QVQHVESGGGLVQAGGSLRLSCAASGRIFYAYAMGWYRQAPGKERELVASISGGGSTDYADSVKGRFTISRDNAKNTVYLQMNSLKPEDTGVYYCAAQYYLYRSRFDYWGQGTQVTVSS
polyreactivity (PSR sort gate): high polyreactivity

QVQHVESGGGLVQAGGSLRLSCAASGRTFAKYAMRWSRQAPGKERELVAAIRWSGGSTYYADSVKGRFTISRDNAKNTVYLQMNSLKPEDTAVYYCAARPALWGRYRGYDYWGQGTQVTVSS
polyreactivity (PSR sort gate): high polyreactivity

QVQHVESGGGLVQAGGSLRLSCAASGRTFALNAMGWYRQAPGKERELVAAISWSSGRTYYADSVKGRFTISRDNAKNTVYLQMNSLKPEDTAVYYCAALVAHKGDYWGQGTQVTVSS
polyreactivity (PSR sort gate): high polyreactivity

QVQHVESGGGLVQAGGSLRLSCAASGRTFDRNAMGWYRQPPGKERELVAGITRSGDSTYADSVKVRFTISRDNAKNTVYLQMNSLKPVDTAVYYCNKEGTIGGTRGYWGQGTQVTVSS
polyreactivity (PSR sort gate): low polyreactivity

QVQHVESGGGLVQAGGSLRLSCAASGRTFGQNAMGWYRQAPGKERELVASIRSGGITDYADSVKGRFTISRDNAKNTVYLHMNSLKPEDTAVYYCNAEGVWWSTRYDSWGQGTQVTVSA
polyreactivity (PSR sort gate): low polyreactivity

QVQHVESGGGLVQAGGSLRLSCAASGRTFRGNAMGWDRQAPGKERELVAAIRYRGGSTYYADSVKGRFTISRDNAKNTVYLQMNSLKPEDTAVYYCARRYTVHTQHYDYWGQGTQVTVSS
polyreactivity (PSR sort gate): high polyreactivity

QVQHVESGGGLVQAGGSLRLSCAASGRTFSANAMGWDRQAPGKEMELVATISSGGRTNYADSVKGRFTISRDNAKNTVYLQMNSLKPEDTAVYYCAKRGPYKRWYGRYDYWGQGTQVTVSS
polyreactivity (PSR sort gate): low polyreactivity

QVQHVESGGGLVQAGGSLRLSCAASGRTFYRNAMGWSRQAPGKERELVARINDGAGTYYADSVKGRFTISRDNAKNTVYLQMNSLKPEDTAVYYCAADYGSKLDYGYWGQGTQVTVSS
polyreactivity (PSR sort gate): low polyreactivity

QVQHVESGGGLVQAGGSLRLSCAASGRTITLNAMGWYRQAPGKERELVAAITWGAGSTYYADSVKGRFTISRDNAKNTVYLQMNSLKPEDTAVYYCAARFHGAYYRYRSPSMYYWGQGTQVTVSS
polyreactivity (PSR sort gate): high polyreactivity

QVQHVESGGGLVQAGGSLRLSCAASGRTSFNYTQGWYRQAPGKERELVAAITSGGDTYYADSVKGRFTISRDNAKNTVYLPMNSLKPEDTAVYYCAVDDLGSEYDYWGQGTQVTVSS
polyreactivity (PSR sort gate): low polyreactivity

QVQHVESGGGLVQAGGSLRLSCAASGSIFAYYAMGWYRQAPGKERELVAAISYRGGSTYYADSVKGRFTISRDNAKNTVYLQMNSLKPEDTAVYYCNAGGRRRIFAHSSTGDYWGQGTQVTVSS
polyreactivity (PSR sort gate): high polyreactivity
